Source: patent US20250296984A1, “THERAPEUTIC AND DIAGNOSTIC AGENTS AND USES THEREOF” (priority 2022, published 2025)
Marks after values point to notes of the source that are not given here.

Legend:
[1] = target: T1, HCMV US28 (strain DB) on CHO-US28-A1 cells (Human cytomegalovirus, UniProt P69332, D170N/D19A); test: FACS surface binding to CHO-US28-A1 cells; conditions: CHO-US28-A1 cells compared with US28 negative control CHO cells
T1 construct: expressed in transfected cells; host or cells: CHO-K1 (vector pCDH-EF1a-MCS)
Description: Plasmid construction was performed to create a US28-overexpressing cell line. The US28 sequence, identical to HCMV DB strain (Acc. Number: KT959235; SEQ ID No. 5 of this application), fused to a 6His tag at its C terminal part, was inserted into the pCDH-EF1a-MCS vector (Creative Biolabs, Shirley, NY 11967, USA). The plasmid construct was transfected to CHO-K1 cell line. The cells were collected 48 hours after transfection. The cell line was named as CHO-US28-A1-6His and its protein sequence (SEQ ID NO: 47) is the following:
(§1) Flowcytometry was used to analyze cell surface binding by the US28 antibodies. Upon cell harvest, adherent non-infected and US28 overexpressing or HCMV infected cells were washed three times with cell staining buffer (phosphate-buffered saline (PBS (Amresco, Cleveland, 44139, USA) added 0.5% BSA and 0.05% Sodium Azide (NaN3)). The cells were trypisinized and then resuspended in DMEM with 10% FBS to inhibit the action of trypsin. The cells were then pelleted at 400×g for 10 minutes and washed three times in cell staining buffer. Cell viability and cell concentration were measured by tryphan blue viability assay and a cell counter (Countess, Invitrogen, Carlsbad, CA 92008, USA). The cell suspension was adjusted to 1×10^6 cells/mL with ice-cold cell staining buffer. The cells were blocked in 1 ml 10% FBS or 1% BSA in PBS per 1×10^6 cells, vortexed briefly, and incubated for 10-30 minutes to eliminate non-specific staining. The cells were then stained with the respective antibodies and appropriate negative controls.
The primary antibodies used were I) 13-5G6-1D3 (50 μg/ml) as a positive control; II) Monovalent and Bivalent VUN100 ScFvs 1:1 (50 μg/ml); III) test antibodies for the specified subclones (1:5).
The primary antibodies used were I) 13-5G6-1D3 1:50 to 50 μg/ml; and II) Commercial US28 polyclonal antibody (50 μg/ml), III) Monovalent and Bivalent VUN100 ScFvs (50 μg/ml) and for certain experiments, the appropriate isotype controls were included.
(§2) In both cases (ECD1 and ECD3), the antibodies were added to the cells, vortexed and incubated on ice for 15 to 30 minutes up to overnight and washed twice with cell staining buffer to remove any unbound antibodies. In addition, the CMV Immediate Early Antigen (IE) Alexa488 Ab, MAB810X, 1:50 was included to verify HCMV infected cells in one of the experiments. Because it binds to an intracellular, HCMV encoded protein, it was added after permeabilizing the cells in 70% ethanol for 30 min on ice.
(§3) 1:500-1:5000 in cell staining buffer of the appropriate fluorescent-conjugated appropriate secondary antibodies were added and incubated on ice for 15-20 min in the dark. The cells were washed three times to remove any unbound antibodies. The cells were then fixed with 0.5% paraformaldehyde (PFA) for 30 min on ice and resuspended in 200-500 μL cell staining buffer for final flow cytometric analysis using an Accuri C6 flow cytometry system (BD Biosciences, San Jose, CA 95131, USA). Data analyses were performed using FlowJo software v8.8 (Treestar Inc. Ashland, OR 97520, USA).
(§4) Background levels were determined using the respective secondary antibodies (anti-mFc-FITC for the subclones, or anti-myc-PE for the VUN100 molecules) with CHO cells and CHO-US28 cells. Given that US28 is expressed on the cell surface, the cells were non-permeabilised for these experiments.

[2] = system: control CHO cells (US28 negative); test: FACS binding to US28 negative control CHO cells; design: species or system Chinese hamster; conditions: Table 7A; (1:5) (200 μg/ml); secondary antibody background removed
Description: as §1, §2, §3, §4

[3] = target: T2, Peptide-2 […] (SEQ ID NO: 7), US28 ECD3 4D variant (Human cytomegalovirus, UniProt P69332); test: ELISA, binding to Bio-Peptide-2; design: species or system HCMV; conditions: 4D variant peptide
T2 construct: made in house; host or cells: chemical synthesis
Description: Microtiter plate wells were coated with 100 μl of the solution containing: (i) Bio-Peptide-N; or (ii) Bio-Peptide-1 and Bio-Peptide-2; at a concentration of between 1-10 μg/ml in coating buffer, consisting of Na2CO3, 1.5 g and NaHCO3, 2.93 g in 1 L of distilled water in pH 9.6, and then incubated for 1-2 hours at room temperature. The plate was washed 3 times in wash buffer consisting of PBS containing 0.05% v/v Tween-20 and blotted with paper towels thereafter. 150 μl of blocking solution containing Phosphate buffered saline (PBS) containing 1% w/v BSA, was added to each well and the plate was incubated for 2 hours at 37° C. The wells were washed 4 times in wash buffer and blotted on paper towels after the last wash. 100 μl of antibody dilution was added to each well and the plate was incubated for 1 hour at 37° C. and thereafter washed 3 times in wash buffer. 100 μl enzyme-conjugated secondary antibody (appropriately diluted in wash buffer) was added to each well and the plate was incubated for 1 hour at 37° C. The wells were then again washed 3 times in wash buffer and blotted with paper towels after the last wash. […] The absorbance values were read immediately at the appropriate wavelength and the data analyzed by Cmax Plus, Molecular Devices, San Jose, CA 95134, USA, […]

Molecule | Binding Specificity (ratio of surface binding) [1] | Percentage of binding to CHO cells [2] | Absorbance values, Peptide 2 [3]
13-5G6-1D3 clone: antibody from hybridoma clone US28-13-5G6-1D3 (antibody) heavy: EVKLVESGGGLVQPGGSLRLACATSGFTFTDYYMSWVRQPPGKALEWLGFIRSKANGYTTEYSASVKGRFTISRDNSQSILYLQMNTLRSEDSATYYCARDERRTAWLAYWGQGTLVTVSAAKTTPPSVYPLAPGSAAQTNSMVTLGCLVKGYFPEPVTVTWNSGSLSSGVHTFPAVLQSDLYTLSSSVTVPSSTWPSETVTCNVAHPASSTKVDKKIVPRDCGCKPCICTVPEVSSVFIFPPKPKDVLTITLTPKVTCVVVDISKDDPEVQFSWFVDDVEVHTAQTQPREEQFNSTFRSVSELPIMHQDWLNGKEFKCRVNSAAFPAPIEKTISKTKGRPKAPQVYTIPPPKEQMAKDKVSLTCMITDFFPEDITVEWQWNGQPAENYKNTQPIMDTDGSYFIYSKLNVQKSNWEAGNTFTCSVLHEGLHNHHTEKSLSHSPGK light: DVLMTQTPLSLPVSLGDQASISCRSSQSIVHSNGNTYLDWYLQKPGQSPKLLIYKVSNRFSGVPDRFSGSGSGTDFTLKISRVEAEDLGVYYCFQGSHVPTWTFGGGTKLEIKRADAAPTVSIFPPSSEQLTSGGASVVCFLNNFYPKDINVKWKIDGSERQNGVLNSWTDQDSKDSTYSMSSTLTLTKDEYERHNSYTCEATHKTSTSPIVKSFNRNEC | 15.2* |  | 
13-1C10-1C10: mouse hybridoma subclone antibody against US28 ECD3 Peptide-1 and -2; sequenced (antibody) heavy: EVKLVESGGVLVKPGGSLKFSCAASGFTFSSHALSWVRQTPEKRLEWVASISSRGRTYYPDSVKGRFTVSRDNARNILYLQVSSLRSEDTAMYYCTRGGTHYSYGNGFDFWGQGTTLTVSSAKTTPPSVYPLAPGSAAQTNSMVTLGCLVKGYFPEPVTVTWNSGSLSSGVHTFPAVLQSDLYTLSSSVTVPSSTWPSETVTCNVAHPASSTKVDKKIVPRDCGCKPCICTVPEVSSVFIFPPKPKDVLTITLTPKVTCVVVDISKDDPEVQFSWFVDDVEVHTAQTQPREEQFNSTFRSVSELPIMHQDWLNGKEFKCRVNSAAFPAPIEKTISKTKGRPKAPQVYTIPPPKEQMAKDKVSLTCMITDFFPEDITVEWQWNGQPAENYKNTQPIMDTDGSYFIYSKLNVQKSNWEAGNTFTCSVLHEGLHNHHTEKSLSHSPGK light: QIVLTQSPAIMSASPGEKVTMTCSVSSSVSYMHWYQQKSGTSPKRWIYDTSKLASGVPARFSGSGSGTSYSLTISTMEAEDAATYYCQQWSNNPPITFGAGTKLELKRADAAPTVSIFPPSSEQLTSGGASVVCFLNNFYPKDINVKWKIDGSERQNGVLNSWTDQDSKDSTYSMSSTLTLTKDEYERHNSYTCEATHKTSTSPIVKSFNRNEC |  | 0.62% | 3.029
14-1H3-1A10: mouse hybridoma subclone antibody against US28 ECD3 Peptide-1 and -2; sequenced (antibody) heavy: EVKLVESGGVLVKPGGSLKFSCAASGFTLSSHALSWVRQTPEKRLEWVASISSRGRTYYPDSVKGRFTVSRDNARNILYLQVSSLRSEDTAMYYCTRGGTHYSYGNGFDFWGQGTTLTVSSAKTTPPSVYPLAPGSAAQTNSMVTLGCLVKGYFPEPVTVTWNSGSLSSGVHTFPAVLQSDLYTLSSSVTVPSSTWPSETVTCNVAHPASSTKVDKKIVPRDCGCKPCICTVPEVSSVFIFPPKPKDVLTITLTPKVTCVVVDISKDDPEVQFSWFVDDVEVHTAQTQPREEQFNSTFRSVSELPIMHQDWLNGKEFKCRVNSAAFPAPIEKTISKTKGRPKAPQVYTIPPPKEQMAKDKVSLTCMITDFFPEDITVEWQWNGQPAENYKNTQPIMDTDGSYFIYSKLNVQKSNWEAGNTFTCSVLHEGLHNHHTEKSLSHSPGK light: QIVLTQSPAIMSASPGEKVTMTCSVSSSVSYMHWYQQKSGTSPKRWIYDTSKLASGVPARFSGSGSGTSYSLTISTMEAEDAATYYCQQWSNNPPITFGAGTKLELKRADAAPTVSIFPPSSEQLTSGGASVVCFLNNFYPKDINVKWKIDGSERQNGVLNSWTDQDSKDSTYSMSSTLTLTKDEYERHNSYTCEATHKTSTSPIVKSFNRNEC |  | 0.58% | 2.842
